Test [1] addresses T1, pyroglutamated human Aβ3-11 with the addition of a C-terminal cysteine residue, pE-FRHDSGYE-C (not fully specified).
T1 peptide: [pGlu]FRHDSGYEC
The experiment in a line: Biacore SPR; overall KD. In general terms: Surface plasmon resonance follows binding to a sensor surface in real time, without labels.

Test [2] has as its target T1, pyroglutamated human Aβ3-11 with the …. The test is described as follows: Biacore SPR; KD1 (first binding step).

Where no end group is shown, it is not given here. [ ]: non-standard residue; d: D form. pGlu = O=C1CC[C@@H](C(=O)O)N1

Our source for the Kd values is patent publication US20170022268A1 (published 2017).

B1: monoclonal antibody 5C9 (antibody, V domains shown)
VH: QIQLQQSGPELVKPGAAVKISCKASGYTFTDYYLNWVKQKPGQGLEWIGWIYPGSGNVKYNEKFKGKATLTADTSSNTAHMQLSSLTSEDTAVYFCTREGLIVYWGQGTLVTVSA
VL: DVVLTQTPFTLSVTIGQPASISCKSSQSLLHSNGESYLNWLFQRPGQSPKRLIYAVSKLDSGVPDRFTGSGSGTDFTLKISRVEAEDLGVYYCVQGTHFPFTFGGGTKLEIK
As a reminder, the Kd is a measure of binding affinity in units of concentration. The low end stands for higher affinity, the high end for lower affinity. B1: the Kd in test [1] came to 8.2 nM; in test [2], 0.116 nM.

B2: monoclonal antibody 2E8 (antibody, V domains shown)
VH: QIQLQQSGPDLVKPGASVKISCKASGYTFTDYYINWVKQKPGQGLEWIGWLNPGSGNTKYNEKFKGKATMTVDTTSSTVYMQLSSLTSEDSAVYFCTREGPIDYWGRGTSVTVSS
VL: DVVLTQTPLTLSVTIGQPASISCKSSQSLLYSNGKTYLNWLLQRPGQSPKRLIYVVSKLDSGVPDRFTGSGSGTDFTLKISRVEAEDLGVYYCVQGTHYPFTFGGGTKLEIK
In the case of B2, the Kd in test [1] turned out to be 64 nM; in test [2], 3.46 nM.
